Experimental data from PMC8616066.

What was measured:
[1] = target: fluorescent tagged HER2 (human) (UniProt P04626); assay: MST; Monolith NT.115; fluorescent tagged HER2, titration of purified GST fusion proteins
[2] = target: eGFP-MUC4β_(ΔEGF2) (human); assay: MST; Monolith NT.115; native fluorescence of the eGFP fusion proteins followed in cell lysate, titration against recombinant HER2-Fc; triplicate with two distinct cell lysates (n = 6)

Kd [1]	Kd [2]	Substance
0.075 µM		GST-MUC4_(EGF1) (domain or fragment)
0.242 µM		GST-MUC4_(EGF2) (domain or fragment)
	0.097 µM	recombinant HER2-Fc (from UniProt P04626 23-652) (Fc fusion)
